US20240238445A1, “INHIBITORS AND USES THEREOF” (NEURACLE SCIENCE CO., LTD., priority 2021, published 2024)

Biological target: binding of FAM19A5 protein to full-length ectodomain of the LRRC4B protein (amino acids 36-576 of SEQ ID NO: 2) (Homo sapiens, UniProt Q7Z5A7)
Experiment: Competitive inhibition assay, plate coated with full-length ectodomain of LRRC4B (amino acids 36-576)
Settings: for inhibition of FAM19A5 binding to coated full-length LRRC4B ectodomain protein (in words): increasing concentrations, FAM19A5 5 ng/mL, 100 nM coat
In short: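 Wells are coated with 100 nM LRRC4B ectodomain (aa 36-576), and 5 ng/mL recombinant FAM19A5 is added with competitor: LRRC4B deletion constructs at increasing concentrations, or synthetic peptides at 20 nM. After incubation at 37 °C, bound FAM19A5 is detected with HRP-conjugated anti-FAM19A5 (1-65) antibody.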

Chain of binding of FAM19A5 protein to full-length ectodomain of the LRRC4B protein (amino acids 36-576 of SEQ ID NO: 2) (Q7Z5A7 44-132): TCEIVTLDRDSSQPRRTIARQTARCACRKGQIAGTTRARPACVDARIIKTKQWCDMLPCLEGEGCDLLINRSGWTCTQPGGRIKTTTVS

GYTYFTTVTVETLETQPGEE [FB-20]
inhibition of interaction between FAM19A5 and the coated LRRC4B protein fragments (in words) (20 nM peptide, statement covers both coats, LRRC4B (36-576) and LRRC4B (453-576)): significantly decreased the interaction
Inhibition rate (%) LRRC4B (amino acids 36-576)-hFc (Table 8, 20 nM peptide, FAM19A5 5 ng/ml): 77.0%
Inhibition rate (%) LRRC4B (amino acids 36-576)-hFc (Table 9, deletion variants, 20 nM peptide, FAM19A5 5 ng/ml): 84.3%
Inhibition rate (%) LRRC4B (amino acids 36-576)-hFc (Table 10, alanine/asparagine mutants): 77.0%

B1: LRRC4B (498-576): LRRC4B ectodomain fragment, amino acids 498-576 of SEQ ID NO: 2 (protein)
chain: QPGEEALQPRGTEKEPPGPTTDGVWGGGRPGDAAGPASSSTTAPAPRSSRPTEKAFTVPITDVTENALKDLDDVMKTTK
inhibition of FAM19A5 binding to coated full-length LRRC4B ectodomain protein (in words): much inferior in their ability to inhibit the interaction

B2: LRRC4B (453-576): LRRC4B ectodomain fragment, amino acids 453-576 of SEQ ID NO: 2; FLAG-tagged or hFc-fused (protein)
chain: VSAVDPVAAGGTGSGGGGPGGSGGVGGGSGGYTYFTTVTVETLETQPGEEALQPRGTEKEPPGPTTDGVWGGGRPGDAAGPASSSTTAPAPRSSRPTEKAFTVPITDVTENALKDLDDVMKTTK
modifications: FLAG tag or human Fc
notes: FLAG-tagged or hFc-fused
inhibition of FAM19A5 binding to coated full-length LRRC4B ectodomain protein (in words): able to inhibit FAM19A5 protein from binding
